Experimental data from article PMC3037847 (Nature, 2010).
Values belong to the binder of their own block, whether it stands above or below them. No end group written: not given here.

B1: Apc3/Cdc27, TPR subunit in the S. cerevisiae APC/C (natural protein)
chain: MAVNPELAPFTLSRGIPSFDDQALSTIIQLQDCIQQAIQQLNYSTAEFLAELLYAECSILDKSSVYWSDAVYLYALSLFLNKSYHTAFQISKEFKEYHLGIAYIFGRCALQLSQGVNEAILTLLSIINVFSSNSSNTRINMVLNSNLVHIPDLATLNCLLGNLYMKLDHSKEGAFYHSEALAINPYLWESYEAICKMRATVDLKRVFFDIAGKKSNSHNNNAASSFPSTSLSHFEPRSQPSLYSKTNKNGNNNINNNVNTLFQSSNSPPSTSASSFSSIQHFSRSQQQQANTSIRTCQNKNTQTPKNPAINSKTSSALPNNISMNLVSPSSKQPTISSLAKVYNRNKLLTTPPSKLLNNDRNHQNNNNNNNNNNNNNNNNNNNNNNNNIINKTTFKTPRNLYSSTGRLTTSKKNPRSLIISNSILTSDYSITLPEIMYNFALILRSSSQYNSFKAIRLFESQIPSHIKDTMPWCLVQLGKLHFEIINYDMSLKYFNRLKDLQPARVKDMEIFSTLLWHLHDKVKSSNLANGLMDTMPNKPETWCCIGNLLSLQKDHDAAIKAFEKATQLDPNFAYAYTLQGHEHSSNDSSDSAKTCYRKALACDPQHYNAYYGLGTSAMKLGQYEEALLYFEKARSINPVNVVLICCCGGSLEKLGYKEKALQYYELACHLQPTSSLSKYKMGQLLYSMTRYNVALQTFEELVKLVPDDATAHYLLGQTYRIVGRKKDAIKELTVAMNLDPKGNQVIIDELQKCHMQE
B2: S. cerevisiae His6-Cdh1 (natural protein)
chain: MSTNLNPFMNNTPSSSPLKGSESKRVSKRPISSSSSASLLSSPSRRSRPSTVYGDRYIPSRTDIDFNSIVSISSMASVPALNPSSTEDQVEYQKERQAHETYNTLLKNELFGEMLSKDTVGSESSIDRIKNTRPSTRGNVHAENTTRHGYELERVSTPPPEAAGLEEFSPHSTPVTPRRLFTSQQDEITRPSSNSVRGASLLTYQQRKGRRLSAASLLQSQFFDSMSPVRPDSKQLLLSPGKQFRQIAKVPYRVLDAPSLADDFYYSLIDWSSTDVLAVALGKSIFLTDNNTGDVVHLCDTENEYTSLSWIGAGSHLAVGQANGLVEIYDVMKRKCIRTLSGHIDRVACLSWNNHVLTSGSRDHRILHRDVRMPDPFFETIESHTQEVCGLKWNVADNKLASGGNDNVVHVYEGTSKSPILTFDEHKAAVKAMAWSPHKRGVLATGGGTADRRLKIWNVNTSIKMSDIDSGSQICNMVWSKNTNELVTSHGYSKYNLTLWDCNSMDPIAILKGHSFRVLHLTLSNDGTTVVSGAGDETLRYWKLFDKPKAKVQPNSLIFDAFNQIR

Columns and labels:
[1] = molecular target: APC/C in complex with Cdh1 (APC/C^Cdh1), budding yeast (S. cerevisiae) (UniProt P53886)
[2] = molecular target: B2; test: cryo-EM structure
[3] = molecular target: the molecule itself; test: cryo-EM structure
[4] = molecular target: T1, Apc2, cullin subunit in the S. cerevisiae APC/C (S. cerevisiae, UniProt Q12440 1-853); test: cryo-EM structure
T1 sequence: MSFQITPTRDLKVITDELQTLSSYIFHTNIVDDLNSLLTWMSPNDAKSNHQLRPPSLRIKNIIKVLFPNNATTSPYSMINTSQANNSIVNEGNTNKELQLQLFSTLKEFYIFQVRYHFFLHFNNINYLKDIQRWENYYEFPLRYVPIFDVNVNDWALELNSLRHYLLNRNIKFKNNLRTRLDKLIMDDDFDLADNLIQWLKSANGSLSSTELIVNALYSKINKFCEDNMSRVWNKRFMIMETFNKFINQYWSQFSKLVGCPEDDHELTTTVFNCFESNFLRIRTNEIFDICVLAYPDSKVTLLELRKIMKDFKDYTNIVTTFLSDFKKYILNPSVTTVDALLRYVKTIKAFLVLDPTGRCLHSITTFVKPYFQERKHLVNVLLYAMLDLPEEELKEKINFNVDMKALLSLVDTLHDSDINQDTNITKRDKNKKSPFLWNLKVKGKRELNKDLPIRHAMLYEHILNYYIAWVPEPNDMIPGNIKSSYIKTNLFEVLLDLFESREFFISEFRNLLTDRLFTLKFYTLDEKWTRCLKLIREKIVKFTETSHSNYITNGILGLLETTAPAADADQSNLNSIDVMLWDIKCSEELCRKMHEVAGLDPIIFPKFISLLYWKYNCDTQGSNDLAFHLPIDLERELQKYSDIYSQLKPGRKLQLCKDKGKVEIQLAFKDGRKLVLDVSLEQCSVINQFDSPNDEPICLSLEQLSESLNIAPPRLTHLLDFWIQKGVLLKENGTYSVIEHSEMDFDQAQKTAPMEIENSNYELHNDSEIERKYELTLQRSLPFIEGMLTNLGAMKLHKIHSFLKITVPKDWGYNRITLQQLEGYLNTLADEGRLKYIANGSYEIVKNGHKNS

[5] = molecular target: B1; test: cryo-EM structure

inhibition of APC/C^Cdh1 ubiquitylation of Clb2 by the peptide [1]: 0.1 mM | binding result [2]: binds
Binder: NVPKKRHALDDVSNFHNK (not fully specified) [18-residue D-box peptide modelled on cyclin B (S. pombe Cdc13)]

Binder: B1
binding result [3]: binds

Binder: B2
binding result [4]: binds | binding result [5]: binds
